Source: patent US20260108618A1

Key:
Experiment in all cases: cell-based or functional assay
[1] = target: Neuraminidase of influenza A/Hong Kong/2671/2019 (H3N2) (influenza A virus A/Hong Kong/2671/2019 (H3N2))
[2] = target: Neuraminidase of influenza A/Hawaii/70/2019 (H1N1)pdm09 (influenza A virus A/Hawaii/70/2019 (H1N1)pdm09)
[3] = target: neuraminidase of influenza B/Florida/4/2006 (Yamagata) (Influenza B virus)
[4] = target: neuraminidase of influenza B/Malaysia/2506/2004 (Victoria) (Influenza B virus)
[5] = target: Neuraminidase of influenza B/Phuket/3073/2013 (Yamagata) (influenza B virus B/Phuket/3073/2013 (Yamagata))
[6] = target: Neuraminidase of influenza B/Washington/02/2019 (Victoria) (influenza B virus B/Washington/02/2019 (Victoria))
[7] = target: neuraminidase of influenza A/Hong Kong/1/1968 (H3N2) (Influenza A virus) (UniProt Q91MA2)
Sequence of neuraminidase of influenza A/Hong Kong/1/1968 (H3N2) (Influenza A virus) (Q91MA2 whole entry): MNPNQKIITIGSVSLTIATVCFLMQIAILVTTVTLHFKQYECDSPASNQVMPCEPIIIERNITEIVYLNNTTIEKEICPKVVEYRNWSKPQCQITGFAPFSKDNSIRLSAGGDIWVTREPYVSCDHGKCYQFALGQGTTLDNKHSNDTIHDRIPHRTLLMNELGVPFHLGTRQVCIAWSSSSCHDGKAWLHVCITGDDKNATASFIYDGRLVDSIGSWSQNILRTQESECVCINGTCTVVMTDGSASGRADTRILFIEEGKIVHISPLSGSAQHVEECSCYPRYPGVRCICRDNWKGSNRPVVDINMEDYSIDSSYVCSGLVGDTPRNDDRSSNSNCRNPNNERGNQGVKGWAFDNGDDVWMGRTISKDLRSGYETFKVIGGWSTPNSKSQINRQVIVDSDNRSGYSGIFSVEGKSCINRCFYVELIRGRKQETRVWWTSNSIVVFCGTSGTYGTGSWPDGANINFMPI

[8] = target: neuraminidase of influenza A/CA/7/2009 (H1N1pdm) (Influenza A virus)

hIgG1 Fc (from UniProt P01857 84-329)
> 1000 nM: enzyme-linked lectin assay (ELLA) (IC50), fetuin substrate, live virus [1] | enzyme-linked lectin assay (ELLA) (IC50), fetuin substrate, live virus [2] | enzyme-linked lectin assay (ELLA) IC50, fetuin substrate, virus [3] | enzyme-linked lectin assay (ELLA) IC50, fetuin substrate, virus [4] | enzyme-linked lectin assay (ELLA) (IC50), fetuin substrate, live virus [5] | enzyme-linked lectin assay (ELLA) (IC50), fetuin substrate, live virus [6] | enzyme-linked lectin assay (ELLA) IC50, fetuin substrate, virus [7] | enzyme-linked lectin assay (ELLA) IC50, fetuin substrate, virus [8]
